In this assay the target is cyno HIDE1 (cyno). Description: FACS, Geo mean ratio of HEK293 cells over-expressing cyno HIDE1 to HEK293 empty vector, antibody 10 ug/ml. On the technique in general: In flow cytometry, cells or beads pass a laser one at a time.

Positions count from the first letter of the chain named.

cyno HIDE1 (cyno), sequence (chain, as listed by the source limits assumed, form in doubt): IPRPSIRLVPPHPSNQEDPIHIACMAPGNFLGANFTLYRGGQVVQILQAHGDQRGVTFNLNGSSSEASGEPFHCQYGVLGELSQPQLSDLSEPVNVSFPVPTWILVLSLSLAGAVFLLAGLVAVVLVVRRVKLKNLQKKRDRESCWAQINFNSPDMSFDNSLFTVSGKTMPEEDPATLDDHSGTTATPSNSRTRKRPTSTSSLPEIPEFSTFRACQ

B1: αhHIDE1_AbD25754_hIgG1_Ser_mAb (antibody, V domains shown)
VH: QVQLVQSGAEVKKPGASVKVSCKASGYTFSGYGMHWVRQAPGQGLEWMGIISPSNGNTNYAQKFQGRVTMTRDTSISTAYMELSRLRSEDTAVYYCAREVYYGLDVWGQGTLVTVSS
VL: DIQMTQSPSSLSASVGDRVTITCRASQSISSWLNWYQQKPGKAPQLLIYGASSLQSGVPSRFSGSGSGTDFTLTISSLQPEDFATYYCQQYISIPITFGQGTKVEIK
In the case of B1, the rMFI OX/EV, 10ug/ml, cHIDE1 (CR) was 353.

B2: αhHIDE1_AbD25760_hIgG1_Ser_mAb (antibody, V domains shown)
VH: QVQLVQSGAEVKKPGSSVKVSCKASGGTFSDYAINWVRQAPGQGLEWMGGIIPNFGTANYAQKFQGRVTITADESTSTAYMELSSLRSEDTAVYYCARGMRSLGGLSYYFDLWGQGTLVTVSS
VL: B1 VL with S30N, W32Y, Q45K, G50A, S93H, I94Y
Turning to B2, the rMFI OX/EV, 10ug/ml, cHIDE1 (CR) is 132.

B3: αhHIDE1_AbD25755_hIgG1_Ser_mAb (antibody, V domains shown)
VH: QVQLVQSGAEVKKPGSSVKVSCKASGGTFSSYAISWVRQAPGQGLEWMGGIVPKFGTAYYAQKFQGRVTITADESTSTAYMELSSLRSEDTAVYYCARENLVYSAIAIWGQGTLVTVSS
VL: B1 VL with S28D, S31N, Q45K, Y91V, I92T, I94T, I96F
Regarding B3, the rMFI OX/EV, 10ug/ml, cHIDE1 (CR) came out at 328.
